In this experiment the target is T1, recombinant extracellular portion of human IGF1R (IGF1R^933-His fragment) (human, UniProt P08069 31-933).
T1 construct: It holds a furin site (RKRR) between the alpha and beta subunits, so the protein may be cleaved into two disulphide-linked chains; also called h-IGF1R; recombinant human IGF1R; not shown: His tag from vector pCDN4/myc-His
The experiment in a line: SPR (BIACORE 3000), human IGF1R immobilized on CM5, VHH injected, 1:1 model, 25 C. How it is done: Approximately 3000 Resonance Units (RU) of recombinant human IGF1R (R&D Systems) were immobilized on a Sensor chip CM5. Immobilization was carried out at a concentration of 10 μg/ml in 10 mM acetate at pH4.0 using the amine coupling kit supplied by the manufacturer. The remaining binding sites were blocked with 1M ethanolamine pH 8.5. An ethanolamine blocked surface was used as a reference surface. For the binding studies, analyses were carried out at 25° C. in 10 mM HEPES, pH7.4 containing 150 mM NaCl, 3 mM EDTA and 0.005% surfactant P20 (Polyoxyethylenesorbitan; GE Healthcare). […] Surfaces were regenerated with 10 mM glycine pH 2.0 with a contact time of 24 seconds. Data were analyzed with BIAevaluation 4.1 software (GE Healthcare).
For orientation: In SPR one partner is held on a chip, and binding of the other changes the refractive index at the surface.

Consider six molecules from patent publication US20170015748A1 (NATIONAL RESEARCH COUNCIL OF CANADA, published 2017).

Usually Kd stands for the equilibrium constant for the complex coming apart. By koff is commonly meant the rate constant with which the complex falls apart. Broadly, the kon is the rate constant with which the complex forms.

Changes are numbered by the printed parent chain.

T1 sequence (P08069 31-933): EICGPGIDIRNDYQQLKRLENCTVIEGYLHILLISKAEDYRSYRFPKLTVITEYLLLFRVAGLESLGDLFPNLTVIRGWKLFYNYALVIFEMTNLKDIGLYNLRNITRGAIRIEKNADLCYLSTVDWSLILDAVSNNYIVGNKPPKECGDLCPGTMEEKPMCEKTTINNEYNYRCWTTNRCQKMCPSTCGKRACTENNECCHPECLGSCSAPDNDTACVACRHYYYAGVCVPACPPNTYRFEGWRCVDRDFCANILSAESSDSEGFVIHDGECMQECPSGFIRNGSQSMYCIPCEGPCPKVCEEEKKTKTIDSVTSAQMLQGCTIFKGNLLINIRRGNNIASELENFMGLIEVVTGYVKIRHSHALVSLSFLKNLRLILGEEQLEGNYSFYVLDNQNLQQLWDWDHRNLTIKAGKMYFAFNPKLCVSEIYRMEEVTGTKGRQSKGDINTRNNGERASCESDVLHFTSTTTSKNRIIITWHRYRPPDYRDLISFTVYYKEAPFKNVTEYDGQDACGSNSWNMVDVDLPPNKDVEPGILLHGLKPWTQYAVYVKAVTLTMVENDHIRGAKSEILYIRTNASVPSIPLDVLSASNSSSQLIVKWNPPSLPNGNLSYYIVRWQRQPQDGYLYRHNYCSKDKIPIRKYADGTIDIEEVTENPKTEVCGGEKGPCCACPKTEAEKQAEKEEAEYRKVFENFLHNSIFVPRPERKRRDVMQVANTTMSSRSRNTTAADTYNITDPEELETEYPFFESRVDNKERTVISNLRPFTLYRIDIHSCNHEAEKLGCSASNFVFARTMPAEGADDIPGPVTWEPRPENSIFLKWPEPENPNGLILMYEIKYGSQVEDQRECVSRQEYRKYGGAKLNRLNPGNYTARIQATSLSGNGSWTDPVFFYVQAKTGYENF

B1: IGF1R-5 VHH (VHH)
VHH: QVKLEESGGGLVQAGGSLRLSCAASGRTIDNYAMAWSRQAPGKDREFVATIDWGDGGARYANSVKGRFTISRDNAKGTMYLQMNNLEPEDTAVYSCAMARQSRVNLDVARYDYWGQGTQVTVSS
notes: Llama VHH expressed in E. coli TG1 from vector pSJF2H and purified by IMAC; Monomeric by SEC; also called anti-IGF1R VHH IGF1R-5; wild-type IGF1R-5
Consider B1, for which the Kd was 0.6 nM, the koff was found to be 0.00034 s⁻¹ and the kon is 530000 M⁻¹ s⁻¹.

B2: IGF1R-5_H3 (VHH)
VHH: QVQLVESGGGLVQPGGSLRLSCAASGRTIDNYAMAWSRQAPGKGLEFVATIDWGDGGTRYANSVKGRFTISRDNSKNTMYLQMNSLRAEDTAVYYCAMARQSRVNLDVARYDYWGQGTLVTVSS
notes: Humanized variant of IGF1R-5, expressed from pSJF2H in E. coli
On to B2, for which the Kd was 0.8 nM, the koff was determined as 0.00041 s⁻¹ and the on-rate (kon) came out at 520000 M⁻¹ s⁻¹.

B3: IGF1R-5_H5 (VHH)
VHH: B2 VHH with G44D, L45R, N77G, Y95S
notes: as for B2
With B3, the Kd stood at 1.6 nM, the koff was 0.0008 s⁻¹ and the kon amounted to 500000 M⁻¹ s⁻¹.

B4: IGF1R-5_H6 (VHH)
VHH: B2 VHH with Q1E, G44D, L45R, A49S, M79L
notes: as for B2
On to B4, for which the Kd stood at 1.7 nM, the dissociation rate constant (koff) is 0.00072 s⁻¹ and the kon is 430000 M⁻¹ s⁻¹.

B5: IGF1R-5_H2 (VHH)
VHH: B2 VHH with S37V, F47W
notes: Humanized variant of IGF1R-5, expressed from pSJF2H in E. coli; also called IGF1R H2
As to B5, the Kd is 7.5 nM, the koff stood at 0.0029 s⁻¹ and the on-rate constant (kon) was determined as 380000 M⁻¹ s⁻¹.

B6: IGF1R-5_H1 (VHH)
VHH: B2 VHH with Q1E, S37V, F47W, A49S, M79L
notes: as for B2
For the molecule B6, the Kd is 11 nM, the koff stood at 0.0043 s⁻¹ and the on-rate constant (kon) amounted to 390000 M⁻¹ s⁻¹.
